From the supplement of paper PMC9170038 come the findings set out here.

The subject of the data set is MS2 coat protein. The experiment in a line: apparent KD of MS2 coat protein; designed switch direction (-1 OFF switch, 1 ON switch): -1; higher = weaker reporter binding. The gist of the method: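 Each step of the titration lasted 0.8–1.5 h at the lowest concentration and 10–20 min at the highest. The protein, SNAP-549-labelled MS2 coat protein, went from 0.7 or 1.5 nM doubling to 3 µM over RNA switches transcribed on Illumina chips by stalled E. coli RNA polymerase. Normalised cluster fluorescence was curve-fitted, and the per-design median over clusters is given as apparent KD.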

The mark [1] stands for this setting: Eterna round: R95, input ligand: microRNA oligo, concentration not stated.
Setting [2] is: Eterna round: R95, input ligand: FMN 200 uM.
[3] abbreviates: Eterna round: R95, input ligand: none.
Where [4] appears, read: input ligand: microRNA oligo, concentration not stated.

Take “AAUUAAUGAGGAUAUACAGUGUAAAACAUGAGGAUCACCCAUGUUCUUCAAUUAGUAUUUGUAGAAGGCAUAGGUA [JR_Ex5_Sub093] (Eterna round: R97, puzzle: Exclusion 5)”: the “apparent KD of MS2 coat protein” value was 32 nM (input ligand: FMN 200 uM) and 61.4 nM (input ligand: none).

In the case of “AAUUAGCAAGCGAGGUCCCACAUGAGGAUCACCCAUGUGCUCGUCUUAUAAGGUACUGUGACGAGAGUCACGGUACC [Mat - Sensor, turn-off var - Eli Mod - D35] (Eterna round: R97, puzzle: Sensor, turn-off variant 1)”, the “apparent KD of MS2 coat protein” value runs as follows: (input ligand: FMN 200 uM) 13.8 nM; (input ligand: none) 15.2 nM.

Regarding “AAUUAGUAUGUGAGGAUAUUGAUGAGAUGAUGGUUUAAGAAGGCACAUGAGGAUCACCCAUGUAGGAAAUAACG [JR_BMEx4_Sub005] (Eterna round: R97, puzzle: Brourd's mod of Exclusion 4)”, the “apparent KD of MS2 coat protein” value stood at 37.8 nM (input ligand: FMN 200 uM) and 24.4 nM (input ligand: none).

For the sequence “AAUUAGUGAGGAUAUUUUAACAGUGGUAGUAGACAGUGGAUGAAGAAGGCACAUGAGGAUCACCCAUGUUAUAA [EX4 #55] (Eterna round: R97, puzzle: Exclusion 4)”, the “apparent KD of MS2 coat protein” value came to 164 nM (input ligand: FMN 200 uM) and 147 nM (input ligand: none).

In the case of “AAUUCACAUGAGGAUCACCCAUGUCAGGAUAUGCUGACGCGGGUUUCGGUGCGUGUUGGCAGAAGGGACAGCUA (puzzle: Exclusion 1)”, the “apparent KD of MS2 coat protein” value under setting [1] was determined as 144 nM.

On to “AAUUCACAUGAGGAUCACCCAUGUCAGGAUAUGGUGACGCGGGUUUCGGUGCGUGUUGCCAGAAGGGACAGCUA (puzzle: Exclusion 1)”, for which the “apparent KD of MS2 coat protein” value under setting [1] worked out at 81.3 nM.

With “AAUUCACAUGAGGAUCACCCAUGUCAGGAUAUGGUUUCACGUGUUUCGGUGCGUGAGGCCAGAAGGGACAGCUA (puzzle: Exclusion 1)”, under setting [1], the “apparent KD of MS2 coat protein” value was found to be 49.7 nM.

With “AAUUUACAUGAGGAUCACCCAUGUCAGGAUAUGGUUUUAUUUUUUUUUUUUUUUUAUUCCAGAAGGGACAGUUA (puzzle: Exclusion 1)”, the “apparent KD of MS2 coat protein” value is, setting by setting: under setting [2], 24.2 nM; under setting [1], 17 nM; under setting [3], 14.8 nM.

With “AAUUUAUGAGGAUAUACAGUGUAAAACAUGAGGAUCACCCAUGUUCUUCAAUUAGUAUUUGUAGAAGGCAUAUGUA [JR_Ex5_Sub095] (Eterna round: R97, puzzle: Exclusion 5)”, the “apparent KD of MS2 coat protein” value by setting is: (input ligand: FMN 200 uM) 17.2 nM; (input ligand: none) 17.1 nM.

Consider “ACAAACACGGCAGGAUAUCCUCGCAUAUGAUAGGUUGUUCUCCACAUGAGGAUCACCCAUGUCGAGGAGAAGGGCCAUCAUUCU [Tibema] (Eterna round: R96, puzzle: Exclusion NG 2)”, for which the “apparent KD of MS2 coat protein” value was determined as 16.2 nM (input ligand: FMN 200 uM), 12.7 nM under setting [4] and 18.9 nM (input ligand: none).

With “ACAAAGGAUACAGGAUAUCGCGUACAAGUGCAGCGAGAAGGGUAUUCUAUGCGCUAUCCGACAUGAGGAUCACCCAUGUGGUCC [Eternabot solution 47] (Eterna round: R96, puzzle: Exclusion NG 1)”, the “apparent KD of MS2 coat protein” value reads like this: (input ligand: FMN 200 uM) 417 nM; under setting [4], 851 nM; (input ligand: none) 366 nM.

On to “ACAACAAGCUUUUUGAACGUAGAACAUGCAGCUCUAGUCACAUGAGGAUCACCCAUGUCAGCCAGUUAGAUAGGUGA [JR_SV3TOV2_Sub066] (puzzle: Sensor v3, turn-off variant 2)”, for which the “apparent KD of MS2 coat protein” value stood at 93.6 nM under setting [2], 126 nM under setting [1] and 127 nM under setting [3].

In the case of “ACAACAAGCUUUUUGUUCGUAGAACAUGAUGCUCUAGUCACAUGAGGAUCACCCAUGUCAACCAGAUAGAUAGUUGA [JR_SV3TOV2_Sub063] (puzzle: Sensor v3, turn-off variant 2)”, the “apparent KD of MS2 coat protein” value is, setting by setting: under setting [2], 53.1 nM; under setting [1], 143 nM; under setting [3], 50.4 nM.
